Results published in the supplement of paper PMC10567573.

B1: EHMT1 (parent)
chain: SARQGELQKVLLMLVDGIDPNFKM

Variants of: B1
Test: protein stability index of a GFP-peptide fusion (GPS, HEK-293T) (PSI 1-6); higher = more stable
Settings: c terminus: a fixed tail appended
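Note: lentivirally expressed fusions sorted by FACS into six bins by GFP to DsRed ratio, PSI derived from sequencing read proportions per bin multiplied by bin number.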

Protein stability index of substitutions, site by site:
L7: A 1.91, M 1.27, N 1.36, T 1.62, K 1.67, F 1.04, H 3.17, G 1.59, D 2.19, S 1.43, I 2.81, V 1.03, Q 1.7, P 1.84, E 2.35, R 2.12, Y 1.5, C 1.03
N21: L 3.55, M 2.24, Y 2.93, K 1.96, G 3.57, R 1.26, T 1.98, H 1.97, D 1.41, W 3.96, I 1.93, Q 1.41
S1: T 2.12, Q 2.03, L 1.03, N 2.67, Y 1.45, M 1.42, P 1.83, R 2.2, W 2.93
K23: D 2.17, A 2.4
L12: V 1.66, S 2.18, A 1.4, M 3.16, D 2.79, F 3.06, K 1.12, R 2.12, T 1.28, N 2.42, H 2.39, G 2.15, E 3.04, P 3.64, C 2.31, Q 2.02
E6: M 2.91, I 3.51, N 2.15, D 1.69, F 2.34, T 2.4, H 2.02, Y 3.65, L 1.99, W 1.89, S 2.6, P 2.45, Q 1.87
V10: C 1.77, A 2.33, M 2.12, Q 1.72, Y 3.4, L 1.25, G 1.94, W 1.77, D 3.36, F 4.02, I 2.01, E 3.02, K 2.47, T 1.99, N 3.15, P 2.43, S 2.29, R 1.88, H 2.16
G5: W 2.55, H 1.97, Y 1.92, R 3.6, P 3.53, T 3.12, E 1.59, Q 1.93, S 1.64, N 2.26, D 1.94, M 3.61, I 3.95, A 2.65, F 1.98, C 1.79
G17: P 1.97, S 2.3, C 2, L 2.07, V 3.87, M 1.78, E 2.08, D 1.36, Y 2.38, N 2.78, Q 1.61, F 3.49, K 1.36, H 1.87
A2: K 1.22, Q 1.78, F 2.81, V 1.75, D 1.61, I 2.21, H 2.27, R 1.28, L 3.91, G 1.02, N 3.47, M 2.95, S 3.14, E 1.86, P 2.31, T 3.06, C 3.59
D19: H 3.59, K 1.81, A 3.05, W 2.35, S 2.5, T 3.29, G 2.8, N 1.64, E 1.5, Y 2.73
V15: I 1.72, S 1.83, N 2.56, W 2.75, L 1.49, C 1.64, M 1.59, D 2.69, H 1.66, A 2.07, E 2.54, K 2.25, T 1.26, Y 1.68, Q 2.17, R 1.65, P 2.39, G 2, F 3.86
I18: K 1.46, T 2.22, Q 3.19, P 1.06, A 1.18, L 2.07, W 2.54, E 2.49, Y 2.76, F 1.81, S 1.97, H 2.42, C 2.47, V 1.59, R 1.66, N 2.24, D 2.22
Q4: E 1.94, T 2.01, P 2.15, K 1.35, N 1.6, Y 1.94, L 3.17, D 1.61, F 3.15, M 3.05, G 1.83, C 2.29, I 2.56, S 1.53, A 2.27
Q8: F 3.86, Y 1.76, H 1.93, S 1.87, N 2.23, I 2.01, P 1.76, D 1.43, T 2.02, E 2.73, K 1.57, G 2.25, L 3.28
L11: K 2.69, A 2.11, G 3.6, D 3.35, T 2.36, Q 2.19, M 1.38, N 3.23, Y 1.65, I 2.1, V 2.7, F 2.49, C 1.99, S 2.45, H 2.15, E 3.28, R 2.53, P 3.13
L14: D 3.47, K 2.74, R 2.61, A 2.39, I 1.98, H 2.38, N 3.02, C 1.46, Q 2.54, T 1.7, W 1.79, F 1.93, Y 1.76, S 3.03, M 3.99, V 2.53, P 3.21, G 2.36, E 3.22
D16: V 2.27, C 1.61, K 2.45, P 2.41, A 2.11, T 2.8, E 1.51, M 2.7, N 2.72, Q 2.49, W 1.96, I 1.69, L 2.31, F 1.6
K9: T 2.9, A 2.51, P 1.95, F 3.96, N 1.91, H 1.62, S 2.79, R 1.68, D 1.62, Q 2.37, V 4.22
M13: K 1.89, F 1.83, H 1.88, R 1.73, T 2.35, I 1.04, G 2.37, D 2.97, L 2.11, S 2, A 1.73, Q 2.09, Y 2.47, N 2.46, E 3.12, P 3.74
F22: M 1.13, T 2.21, H 1.56, G 2.71, R 1.52, N 1.56, A 1.65, D 2.01, V 1.18, Q 1.76, C 1.82, K 1.89, Y 1.39, W 2.49, L 1.83, I 2.09, S 2.71, P 1.76, E 2.69
P20: D 1.43, Q 1.83, A 2.66, H 1.75, G 1.09, M 2.91, K 1.76, T 1.27, R 1.5, F 2.59
R3: E 2.2, S 1.75, H 1.5, C 1.83, L 2.39, Q 2.25, G 1.86, W 3.4, N 2.38, A 1.96, I 2.15, D 1.78, F 1.86, K 2.8, Y 1.88, P 2.83, T 1.76
